In publication PMC10119177 (2023):

Biological target: recombinant IgI3 domain of the S. pyogenes R28 protein (R28-IgI3), wildtype (S. pyogenes) (UniProt Q9XDB6)
Test: ITC; iTC200, 25 °C, 16 injections of 2.42 µl, 30 mM Tris-HCl, 150 mM NaCl, pH 7.5, 750 rpm, in duplicate; 500 µM rCEACAM-N domains in the syringe, 50 µM rR28-IgI3 (methods)

Row | Substance | Kd
1 | rCEACAM1-N Q44A (from UniProt P13688 34-141) (domain or fragment) | 920 nM
2 | rCEACAM1-N Q89A (from UniProt P13688 34-141) (domain or fragment) | 687 nM
3 | rCEACAM1-N N97A (from UniProt P13688 34-141) (domain or fragment) | 210 nM
4 | rCEACAM1-N V96A (from UniProt P13688 34-141) (domain or fragment) | 116 nM
